Like-named read-outs stand apart in the source and are kept apart here. No end group written: not given here.
How the values were obtained:
DRB1*0701 (DR7) = target: T1, DRB1*0701 (DR7) (Homo sapiens, UniProt P01903+P01911, A100R/A102G/A103Q/D57E/D86V/E43K/F76Y/K127E/L162R/M171V/P40G/Q125H/Q99D/R33Q/R42Y/R54Q/S133A/S66F/T210M/V115G/Y107V/Y59L/Y89S); test: biochemical; type: binding
T1 construct: endogenous in cells; host or cells: Pitout

DRB1*1101 (DR5w11) = target: T2, DRB1*1101 (DR5w11) (Homo sapiens, UniProt P01903+P01911, A100R/A169T/A87E/I96F/K41T/L162R/M171V/P40S/Q125H/Q178H/Q39Y/Q99D/R42S/S66Y/T262R/V115G/W38E); test: biochemical; type: binding
T2 construct: endogenous in cells; host or cells: Sweig
T2 sequence (P01903 26-254, other chains not shown): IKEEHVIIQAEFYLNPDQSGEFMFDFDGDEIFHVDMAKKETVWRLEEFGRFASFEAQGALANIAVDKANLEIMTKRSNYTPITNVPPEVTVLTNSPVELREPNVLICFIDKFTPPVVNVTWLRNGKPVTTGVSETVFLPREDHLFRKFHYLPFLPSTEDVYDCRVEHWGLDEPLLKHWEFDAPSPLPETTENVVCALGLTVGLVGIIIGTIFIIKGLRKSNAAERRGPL

DRB1*1302 (DR6w19) = target: T3, DRB1*1302 (DR6w19) (Homo sapiens, UniProt P01903+P01911, A100E/A169T/K41T/L162R/M171V/P40S/Q125H/Q178H/Q39Y/Q99D/R42S/S66N/T262R/V115G/W38E/Y61H); test: HLA class II peptide binding assay; conditions: for DR6w19 binding information: unit not given; for DR6w19 binding data: Table XIXb
T3 construct: endogenous in cells; host or cells: H0301
T3 sequence (P01903 26-254, other chains not shown): as above

DRB1*0301 (DR3) = target: T4, DRB1*0301 (DR3) (Homo sapiens, UniProt P01903+P01911, A100K/A102G/A103R/A169T/F55Y/I96L/K41T/L162R/M171V/P40S/Q125H/Q178H/Q39Y/R42S/S66N/T106N/T262R/W38E/Y61H); test: HLA class II peptide binding assay (pH 4.5); conditions: for DR3 binding information: unit not given; for DR3 binding data: Table XIXb; for Alleles bound (DR3): binding to DR3, Table XXXIV
T4 construct: endogenous in cells; host or cells: MAT

DRB1*1501 (DR2w2β1) = target: T5, DRB1*1501 (DR2w2β1) (Homo sapiens, UniProt P01903+P01911); test: HLA class II peptide binding assay; conditions: for DR2w2β1 binding information: unit not given; for DR2w2β1 binding data: Table XIXb
T5 construct: expressed in transfected cells; host or cells: L466.1 (fibroblasts)

DRB1*0101 (DR1) = target: T6, DRB1*0101 (DR1) (Homo sapiens, UniProt P01903+P01911, A100R/D57E/F55L/F60I/F76Y/I96L/L162R/M171V/P40L/Q125E/R42F/V115G/Y59C); test: HLA class II peptide binding assay; conditions: for DR1 binding information: unit not given; for DR1 binding data: Table XIXb, Malaria Super Motif Peptides With Binding Data
T6 construct: endogenous in cells; host or cells: LG2
T6 sequence (P01903 26-254 partner, other chains not shown): as the sequence (P01903 26-254, other chains not shown) above

DRB5*0101 (DR2w2β2) = target: T7, DRB5*0101 (DR2w2β2) (Homo sapiens, UniProt P01903+Q30154); type: binding
T7 construct: expressed in transfected cells; host or cells: L416.3 (fibroblasts) or GM3107

DRB1*0802 (DR8w2) = target: T8, DRB1*0802 (DR8w2) (Homo sapiens, UniProt P01903+P01911, A100R/A103L/A169T/F76Y/H45Y/I96F/K41T/L162R/M171V/P40S/Q125H/Q178H/Q39Y/Q99D/R218S/R42G/S66Y/V115G/W38E); test: biochemical; type: binding
T8 construct: endogenous in cells; host or cells: OLL

DRB1*0401 (DR4w4) = target: T9, DRB1*0401 (DR4w4) (Homo sapiens, UniProt P01903+P01911, A100K/A169T/F76Y/I96L/K127E/L162R/M171V/N62H/P40V/Q125Y/R42H/S133A/S149N/S66Y/V115G/V209L/W38E); test: HLA class II peptide binding assay; conditions: for DR4w4 binding data: Table XIXb; for DR4w4 binding information: unit not given
T9 construct: endogenous in cells; host or cells: Preiss
T9 sequence (P01903 26-254 partner, other chains not shown): as the sequence (P01903 26-254, other chains not shown) above

DRB1*0405 (DR4w15) = target: T10, DRB1*0405 (DR4w15) (Homo sapiens, UniProt P01903+P01911, A100R/A169T/D86S/F76Y/I96L/K127E/L162R/M171V/N62H/P40V/Q125Y/R42H/S133A/S149N/S66Y/V115G/V209L/W38E); test: HLA class II peptide binding assay; conditions: for DR4w15 binding data: Table XIXb; for DR4w15 binding information: unit not given
T10 construct: endogenous in cells; host or cells: KT3

DRB1*1201 (DR5w12) = target: T11, DRB1*1201 (DR5w12) (Homo sapiens, UniProt P01903+P01911, A100R/A169T/D57E/D86V/F55L/H45Y/K41T/L162R/M171V/P40S/Q125H/Q178H/Q39Y/Q99D/R42G/S66L/T262R/V114A/V67L/W38E/Y59H/Y61H/Y89S); test: HLA class II peptide binding assay; conditions: Table XIXb; DR5w12
T11 construct: endogenous in cells; host or cells: Herluf

DRB1*0901 (DR9) = target: T12, DRB1*0901 (DR9) (Homo sapiens, UniProt P01903+P01911, A100R/A103E/D57H/D86V/F55Y/F60I/F76Y/I96F/K127E/L162R/M171V/P40D/Q125H/Q99R/R33Q/R42F/S133A/S66N/T210M/V115G/W38K/Y107V/Y59G/Y89S); test: biochemical; type: binding
T12 construct: endogenous in cells; host or cells: HID

DRB4*0101 (DRw53) = target: T13, DRB4*0101 (DRw53) (Homo sapiens, UniProt P01903+P13762, G164S); test: HLA class II peptide binding assay (pH 5.0); conditions: for DRw53 binding data: Table XIXb
T13 construct: expressed in transfected cells; host or cells: L257.6 (fibroblasts)

HLA-A*0301 = target: T14, HLA-A*0301 (Homo sapiens, UniProt P04439); test: HLA class I peptide binding assay; conditions: Malaria A3 motif peptides, Table XVI; binding value to HLA-A*0301, unit not given
T14 construct: endogenous in cells; host or cells: GM3107

HLA-A*1101 = HLA-A*1101 (Homo sapiens, UniProt P04439, A114D/D185E/E176A/F33Y/L180Q/S129P/T187R); test: HLA class I peptide binding assay; conditions: Table XVII, malaria A11 motif peptides; binding value unit not given
[1] = DR3a motif peptides, exemplary 15-mer containing the core sequence

Molecule	DR7 binding data (DRB1*0701 (DR7))	DR5w11 binding data (DRB1*1101 (DR5w11))	DR3 binding data (DRB1*0301 (DR3))	DR4w4 binding data (DRB1*0401 (DR4w4))	DR4w15 binding data (DRB1*0405 (DR4w15))	DR2w2β1 binding data (DRB1*1501 (DR2w2β1))	DR1 binding data (DRB1*0101 (DR1); DR1)	DR5w12 binding data (DRB1*1201 (DR5w12))	DR9 binding data (DRB1*0901 (DR9))	DR2w2β2 binding data (DRB5*0101 (DR2w2β2))	DR8w2 binding data (DRB1*0802 (DR8w2))	DR6w19 binding data (DRB1*1302 (DR6w19))	other results
IQDSLKESR													DR7 binding information (DRB1*0701 (DR7)): -0.0014; DR5w11 binding information (DRB1*1101 (DR5w11)): -0.0006; DR6w19 binding information (DRB1*1302 (DR6w19); Malaria DR3b motif peptides): -0.0002; DR3 binding information (DRB1*0301 (DR3); Malaria DR3b motif peptides): 0.8400; DR2w2β1 binding information (DRB1*1501 (DR2w2β1); Malaria DR3b motif peptides): 0.0040; DR1 binding information (DRB1*0101 (DR1); Malaria DR3b motif peptides): -0.0001; DR2w2β2 binding information (DRB5*0101 (DR2w2β2)): -0.0018; DR8w2 binding information (DRB1*0802 (DR8w2)): 0.0012
LGNVSTVLL	0.4300	0.0005	0.0059	0.0065	0.0360	0.0240	0.0430	0.0001	0.5300	0.0013	0.0012		
LALFFIIFN	0.0056	-0.0005	-0.0043	0.0047	0.0100	0.0180	0.0006	0.0002	-0.0018	-0.0021	-0.0007	-0.0002	
IAGGLALLA	-0.0003	-0.0002		0.0014	0.0014		0.0160	0.0007		0.0013	0.0004		DRw53 binding data (DRB4*0101 (DRw53)): -0.0005; A*0301 (binding information) (HLA-A*0301): 0.0002
YQNNIVDEI	-0.0003	-0.0004	0.0026	-0.0006	-0.0014	0.0001	0.0001	0.0001	-0.0005	-0.0006	-0.0003	0.0810	DRw53 binding data (DRB4*0101 (DRw53)): 0.0850
LAILSVSSF	0.0500	0.0370	-0.0043	0.0078	0.0270	0.5000	0.1000	0.1200	0.1100	0.0130	0.0013	0.0930	
IKNSEKDEI													DR7 binding information (DRB1*0701 (DR7)): -0.0011; DR5w11 binding information (DRB1*1101 (DR5w11)): -0.0003; DR3 binding information (DRB1*0301 (DR3); Malaria DR3b motif peptides): -0.0017; DR4w4 binding information (DRB1*0401 (DR4w4); Malaria DR3b motif peptides): 0.0030; DR4w15 binding information (DRB1*0405 (DR4w15); Malaria DR3b motif peptides): -0.0010; DR2w2β1 binding information (DRB1*1501 (DR2w2β1); Malaria DR3b motif peptides): -0.0021; DR1 binding information (DRB1*0101 (DR1); Malaria DR3b motif peptides): 0.0002; DR2w2β2 binding information (DRB5*0101 (DR2w2β2)): -0.0160; DR8w2 binding information (DRB1*0802 (DR8w2)): -0.0007
VVPGAATPY	0.0160	0.0036	-0.0008	0.0057	-0.0014	0.0008	0.1100	0.0061	0.0200	0.0053	0.0026	0.0017	A*1101 binding information (HLA-A*1101): 0.0002
LATSVLAGL	0.6500	0.0210	0.0010	3.2000	0.1200	0.0018	1.2000	0.0073	2.6000	0.0700	0.1300	0.0072	
VHDLISDMI	0.0100	0.0037	0.0100	0.0310	0.0075		0.0130	0.0001	0.0430	0.0061	0.0096	0.0004	DRw53 binding data (DRB4*0101 (DRw53)): 0.0940
CC(C)C[C@H](NC(=O)[C@H](CC(N)=O)NC(=O)[C@H](CS)NC(=O)[C@@H](N)CCCCN)C(=O)N[C@@H](Cc1ccc(O)cc1)C(=O)N[C@@H](C)C(=O)N[C@@H](CC(=O)O)C(=O)N[C@@H](CO)C(=O)N[C@@H](C)C(=O)N[C@@H](Cc1c[nH]c2ccccc12)C(=O)N[C@@H](CCC(=O)O)C(=O)N[C@@H](CC(N)=O)C(=O)N[C@H](C(=O)N[C@@H](CCCCN)C(=O)N[C@@H](CC(N)=O)C(=O)O)C(C)C [Peptide 35.0172]													IC50 (DRB1*0701 (DR7)): > 20 µM; IC50 (DRB1*1101 (DR5w11)): > 20 µM; IC50 (DRB1*1302 (DR6w19)): 11.1 µM; IC50 (DRB1*0301 (DR3)): 0.857 µM; Alleles bound (DR3) (DRB1*0301 (DR3)): DR3; IC50 (DRB1*1501 (DR2w2β1)): 18.2 µM; IC50 (DRB1*0101 (DR1)): 23400 nM; IC50 (DRB1*0901 (DR9)): > 20 µM; IC50 (DRB1*0802 (DR8w2)): > 20 µM
VNHAVPLAM			0.2300	3.900	0.0400				4.000		0.200		
LYADSAWEN													DR7 binding information (DRB1*0701 (DR7)): -0.0014; DR5w11 binding information (DRB1*1101 (DR5w11)): -0.0006; DR6w19 binding information (DRB1*1302 (DR6w19); [1]): 0.0003; DR3 binding information (DRB1*0301 (DR3); [1]): 0.3500; DR2w2β1 binding information (DRB1*1501 (DR2w2β1); [1]): 0.0005; DR1 binding information (DRB1*0101 (DR1); [1]): 0.0002; DR2w2β2 binding information (DRB5*0101 (DR2w2β2)): -0.0010; DR8w2 binding information (DRB1*0802 (DR8w2)): -0.0009
PDSIQDSLKESRKLN [Peptide 35.0171]													IC50 (DRB1*0701 (DR7)): > 20 µM; IC50 (DRB1*1101 (DR5w11)): > 20 µM; IC50 (DRB1*1302 (DR6w19)): > 20 µM; Alleles bound (DR3) (DRB1*0301 (DR3)): DR3; IC50 (DRB1*1501 (DR2w2β1)): 2.29 µM; IC50 (DRB1*0101 (DR1); read-out: Binding capacity (IC50 nM) DR1, DR1): > 20000 nM; IC50 (DRB1*0901 (DR9)): > 20 µM; IC50 (DRB1*0802 (DR8w2)): > 20 µM
VCNDEVDLY													DR7 binding information (DRB1*0701 (DR7)): -0.0003; DR5w11 binding information (DRB1*1101 (DR5w11)): 0.0001; DR3 binding information (DRB1*0301 (DR3); [1]): -0.0006; DRw53 binding information (DRB4*0101 (DRw53); DR3a motif peptides, unit not given, exemplary 15-mer containing the core sequence): -0.0010; DR4w4 binding information (DRB1*0401 (DR4w4); [1]): -0.0014; DR4w15 binding information (DRB1*0405 (DR4w15); [1]): -0.0004; DR2w2β1 binding information (DRB1*1501 (DR2w2β1); [1]): -0.0006; DR1 binding information (DRB1*0101 (DR1); [1]): 0.0003; DR2w2β2 binding information (DRB5*0101 (DR2w2β2)): 0.1300; DR8w2 binding information (DRB1*0802 (DR8w2)): -0.0003
